The target in data set [1] is T1, Hera_RBD K463A (Thermus thermophilus, UniProt O07897 424-510, K463A).
T1 sequence: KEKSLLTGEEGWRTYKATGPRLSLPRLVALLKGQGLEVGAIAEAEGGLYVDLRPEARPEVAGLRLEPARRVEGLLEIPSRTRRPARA
The experiment in a line: fluorescence anisotropy; 5 mM Mg2+; text also says abolishes binding; Anisotropy: 50 mM Tris/HCl pH 7.5, 150 mM NaCl, 5 mM MgCl2 (Fig 2), 25 C, 50 nM RNA; EMSA: same Tris/NaCl, 12% glycerol, 25 C; NMR: 25 mM Bis-Tris/HCl pH 6.0, 50 mM NaCl, 10% D2O, 37 C. As to conditions: protein: recombinant; label: 5'-fluorescein; hairpin with 5' single strand.

Data set [2] deals with T2, Hera_RBD_dC-tail (Thermus thermophilus, UniProt O07897 424-491, del492-510).
T2 sequence: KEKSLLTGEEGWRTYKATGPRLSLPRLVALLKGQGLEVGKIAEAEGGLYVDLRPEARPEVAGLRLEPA
The experiment in a line: fluorescence anisotropy; 5 mM Mg2+; Anisotropy: 50 mM Tris/HCl pH 7.5, 150 mM NaCl, 5 mM MgCl2 (Fig 2), 25 C, 50 nM RNA; EMSA: same Tris/NaCl, 12% glycerol, 25 C; NMR: 25 mM Bis-Tris/HCl pH 6.0, 50 mM NaCl, 10% D2O, 37 C. As to conditions: protein: recombinant; label: 5'-fluorescein; hairpin with 5' single strand. For orientation: Fluorescence polarisation rises when a labelled molecule tumbles more slowly, as on binding a larger partner.

Data set [3] has as its target T3, Hera_1-491 (Thermus thermophilus, UniProt O07897 1-491, del492-510).
T3 sequence: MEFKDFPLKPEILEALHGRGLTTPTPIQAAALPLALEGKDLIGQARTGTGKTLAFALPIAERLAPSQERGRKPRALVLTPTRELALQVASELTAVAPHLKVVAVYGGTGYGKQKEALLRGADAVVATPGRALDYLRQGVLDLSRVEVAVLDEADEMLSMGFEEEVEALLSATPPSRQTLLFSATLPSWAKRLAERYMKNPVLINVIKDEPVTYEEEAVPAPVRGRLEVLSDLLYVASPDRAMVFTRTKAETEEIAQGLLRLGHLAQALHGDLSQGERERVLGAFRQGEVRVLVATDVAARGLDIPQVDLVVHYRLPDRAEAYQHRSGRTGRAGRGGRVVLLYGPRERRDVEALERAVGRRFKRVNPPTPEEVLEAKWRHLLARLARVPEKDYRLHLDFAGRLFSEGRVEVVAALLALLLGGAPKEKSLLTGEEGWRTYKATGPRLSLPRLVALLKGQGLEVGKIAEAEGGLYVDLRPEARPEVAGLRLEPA
The description is as above. As to conditions: protein: recombinant; chain copies: 2; label: 5'-fluorescein; hairpin with 5' single strand.

Data set [4] has as its target T4, Hera_K463A (Thermus thermophilus, UniProt O07897 1-510, K463A).
T4 sequence: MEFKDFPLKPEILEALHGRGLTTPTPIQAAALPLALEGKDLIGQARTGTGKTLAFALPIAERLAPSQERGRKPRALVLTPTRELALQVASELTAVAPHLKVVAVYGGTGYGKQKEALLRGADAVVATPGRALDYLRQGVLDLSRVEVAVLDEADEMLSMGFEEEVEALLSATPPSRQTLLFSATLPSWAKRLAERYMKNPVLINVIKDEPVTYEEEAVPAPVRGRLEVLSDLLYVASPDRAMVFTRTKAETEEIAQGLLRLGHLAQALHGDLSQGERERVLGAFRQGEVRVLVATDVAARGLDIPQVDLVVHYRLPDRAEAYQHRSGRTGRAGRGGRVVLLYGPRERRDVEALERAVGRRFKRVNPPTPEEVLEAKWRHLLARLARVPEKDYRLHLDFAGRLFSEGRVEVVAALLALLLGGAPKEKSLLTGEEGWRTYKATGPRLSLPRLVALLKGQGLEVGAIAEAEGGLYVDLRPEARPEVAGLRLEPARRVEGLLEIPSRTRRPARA
The data set is described as above. As to conditions: protein: recombinant; chain copies: 2; label: 5'-fluorescein; hairpin with 5' single strand.

By Kd is commonly meant the free concentration of one partner at which half of the binding sites on the other are occupied at equilibrium, for simple one-to-one binding. Regarding GCAGGUCCCAAGGGUUGGGCUGUUCGCCCAUU (structured_RNA) [32mer], in data set [1], the binding signal was greater than 25 fold Kd increase. Further, the values for the Kd in data set [2], in data set [3] and in data set [4] were 13000 nM, 1100 ± 130 nM and 1000 ± 170 nM, respectively.

Values taken from paper PMC3695512, “Recognition of two distinct elements in the RNA substrate by the RNA-binding domain of the T. thermophilus DEAD box helicase Hera”.
